# The supplement of paper PMC10126150
# ± gives the standard deviation of the averaged measurements.
# Tested on: ATP
# Assay: switch fluorescence ratio, 500 uM ATP over buffer (Cy3 cluster intensity, sum of 5 cycles each) (fold (ratio)); higher = stronger signal-on switching upon ATP binding; sequences stand for … in TCGTCGGCAGCGTCAGATGTGTATAAGAGACAGTTTTTTTTTTTTTTTTTTTTTTTTT…TC
# Details: aptamer strand: ATP DNA aptamer (quencher-CACCTGGGGGAGTATTGCGGAGGAAGG + anchor), 100 nM annealed; ATP concentration: 500 uM
# How it was run: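 Clusters with intensities outside 100-1000 RFU were excluded. The remaining Cy3-labelled switching-strand clusters on a modified Illumina MiSeq flow-cell had been annealed to 100 nM quencher-labelled ATP aptamer and imaged in selection buffer, then after 15 min with 500 uM ATP at 22 °C, for five cycles separated by NaOH stripping and re-annealing. The fluorescence ratio, averaged per switch-domain sequence, is each cluster's summed target-cycle Cy3 intensity over its summed buffer-cycle Cy3 intensity.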
# 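Also: ATP exposure 15 min at 22 °C before imaging.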
row,Sequence,switch fluorescence ratio
1,CGGGGGTTTG,1.01 ± 0.031
2,CGGGGTAAAG,0.9787 ± 0.0032
3,CGGGGTACTT,1.06 ± 0.056
4,CGGGGTAGGG,0.983 ± 0.016
5,CGGGGTCAAT,1.85 ± 1.2
6,CGGGGTCATT,0.979 ± 0.011
7,CGGGGTCGGT,0.963 ± 0.021
8,CGGGGTGCGT,1.02 ± 0.037
9,CGGGGTGCTA,1.007 ± 0.0077
10,CGGGGTGGGG,0.993 ± 0.056
11,CGGGGTGTGG,1.01 ± 0.033
12,CGGGGTTACC,0.9924 ± 0.0059
13,CGGGGTTCGC,1.95 ± 1.3
14,CGGGGTTGTT,0.9882 ± 0.0067
15,CGGGTAAGCC,0.961 ± 0.027
16,CGGGTAAGGG,1.01 ± 0.04
17,CGGGTAAGTT,1.09 ± 0.2
18,CGGGTAATAG,1.46 ± 0.16
19,CGGGTACCAG,1.01 ± 0.043
20,CGGGTACGTG,1.02 ± 0.018
21,CGGGTAGCG,0.969 ± 0.013
22,CGGGTAGGGA,1.01 ± 0.022
23,CGGGTATGGC,1.02 ± 0.063
24,CGGGTATTTG,1.04 ± 0.028
25,CGGGTCCTAA,0.9795 ± 0.0078

row,Sequence,switch fluorescence ratio
1,CGGGTCGAAA,0.982 ± 0.049
2,CGGGTCTGCT,0.985 ± 0.022
3,CGGGTGCAAA,1.08 ± 0.016
4,CGGGTGCGGT,0.951 ± 0.045
5,CGGGTGGGG,1.03 ± 0.071
6,CGGGTGGTGG,0.99 ± 0.017
7,CGGGTGTGAC,1.02 ± 0.023
8,CGGGTGTGGG,1.009 ± 0.0012
9,CGGGTTACGG,0.9728 ± 0.0055
10,CGGGTTAGAG,0.968 ± 0.019
11,CGGGTTGGTT,1.032 ± 0.0056
12,CGGGTTGTAG,1 ± 0.036
13,CGGGTTGTCA,0.9969 ± 0.0072
14,CGGGTTGTCG,1.02 ± 0.05
15,CGGGTTTACG,1 ± 0.025
16,CGGTAAACAC,1.06 ± 0.047
17,CGGTAACCTT,1.31 ± 0.44
18,CGGTAACTAT,1.02 ± 0.017
19,CGGTAAGGGC,0.966 ± 0.038
20,CGGTAATTGG,1.01 ± 0.02
21,CGGTACGGGG,0.979 ± 0.018
22,CGGTACTATA,1.055 ± 0.0086
23,CGGTAGAGTA,0.98 ± 0.062
24,CGGTAGATGT,1 ± 0.034
25,CGGTAGCTCT,0.989 ± 0.037

row,Sequence,switch fluorescence ratio
1,CGGTAGGAAC,1.01 ± 0.028
2,CGGTAGGCTT,0.996 ± 0.037
3,CGGTAGTGAG,1.04 ± 0.014
4,CGGTAGTTGG,0.983 ± 0.019
5,CGGTATAACT,1 ± 0.011
6,CGGTATAGTA,0.983 ± 0.032
7,CGGTATCTAT,0.96436 ± 0.00057
8,CGGTATGTAT,1.02 ± 0.042
9,CGGTCGGGGT,0.995 ± 0.045
10,CGGTCGGGTA,1.01 ± 0.031
11,CGGTCGGGTC,1.01 ± 0.028
12,CGGTCGTAAC,1.04 ± 0.018
13,CGGTCTGGTC,0.987 ± 0.018
14,CGGTCTGTTA,1.04 ± 0.11
15,CGGTCTTGGG,0.9536 ± 0.0085
16,CGGTGAAGAA,0.989 ± 0.013
17,CGGTGAATCT,1.01 ± 0.03
18,CGGTGACGGG,0.959 ± 0.014
19,CGGTGACTTG,1.01 ± 0.017
20,CGGTGATCGT,1.02 ± 0.015
21,CGGTGATGGG,1.01 ± 0.031
22,CGGTGATTTT,1.02 ± 0.03
23,CGGTGCATGA,1.027 ± 0.0092
24,CGGTGCGCTG,0.9964 ± 0.0016
25,CGGTGCGGGA,1.01 ± 0.011

row,Sequence,switch fluorescence ratio
1,CGGTGGACGA,0.9977 ± 0.005
2,CGGTGGACTG,1.07 ± 0.014
3,CGGTGGCAGC,0.983 ± 0.038
4,CGGTGGGCGC,0.974 ± 0.091
5,CGGTGGTGGC,1.13 ± 0.015
6,CGGTGTACTG,0.992 ± 0.013
7,CGGTGTAGGG,0.99 ± 0.03
8,CGGTGTAGTC,1.012 ± 0.01
9,CGGTGTGACA,0.993 ± 0.051
10,CGGTGTGGGA,0.996 ± 0.044
11,CGGTGTGGGT,1.03 ± 0.0023
12,CGGTGTTGGA,0.978 ± 0.039
13,CGGTTAAACG,0.975 ± 0.019
14,CGGTTAAGAT,0.993 ± 0.012
15,CGGTTACATT,1 ± 0.014
16,CGGTTACCAG,1.03 ± 0.013
17,CGGTTAGATG,1 ± 0.047
18,CGGTTAGGGG,0.9829 ± 0.0021
19,CGGTTAGTTT,0.97 ± 0.034
20,CGGTTATAAG,0.9679 ± 0.00054
21,CGGTTATCTA,1.01 ± 0.054
22,CGGTTATTGG,0.958 ± 0.041
23,CGGTTCAGTT,1.036 ± 0.0022
24,CGGTTCCTAA,0.994 ± 0.016
25,CGGTTGATGG,0.969 ± 0.074

row,Sequence,switch fluorescence ratio
1,CGGTTGGCGA,1.02 ± 0.011
2,CGGTTGTGAC,0.994 ± 0.027
3,CGGTTGTTGG,0.9787 ± 0.0058
4,CGGTTTATAA,0.981 ± 0.013
5,CGGTTTCAGT,0.996 ± 0.023
6,CGGTTTCGTG,0.995 ± 0.018
7,CGGTTTTATC,1.01 ± 0.034
8,CGGTTTTCAT,0.984 ± 0.019
9,CGGTTTTTT,1 ± 0.021
10,CGTAAAAAT,1.01 ± 0.027
11,CGTAAAAATG,1.01 ± 0.024
12,CGTAAAATTT,1.05 ± 0.12
13,CGTAAACGCT,1.04 ± 0.024
14,CGTAAACTAG,0.97 ± 0.016
15,CGTAAAGCCT,0.991 ± 0.02
16,CGTAAAGGAG,0.992 ± 0.052
17,CGTAACTGTT,0.995 ± 0.091
18,CGTAACTTGG,1.01 ± 0.029
19,CGTAATGCTT,1.17 ± 0.032
20,CGTAATGGGA,1.04 ± 0.025
21,CGTAATTTCT,1.06 ± 0.038
22,CGTAATTTTA,1.01 ± 0.027
23,CGTACCGGGT,1.01 ± 0.022
24,CGTACGGCAG,0.9978 ± 0.0052
25,CGTACTCCTT,1.12 ± 0.025

row,Sequence,switch fluorescence ratio
1,CGTACTTAGC,1.069 ± 0.0034
2,CGTAGAGAAA,0.991 ± 0.044
3,CGTAGCTAGA,1.89 ± 0.047
4,CGTAGGAGTC,0.963 ± 0.15
5,CGTAGGCCGA,0.952 ± 0.068
6,CGTAGGTATG,0.983 ± 0.023
7,CGTAGTAAAT,1.062 ± 0.0087
8,CGTAGTATAT,1.25 ± 0.043
9,CGTATAAGTT,0.937 ± 0.018
10,CGTATCAGGG,1.01 ± 0.032
11,CGTATGAAAT,0.9985 ± 0.0089
12,CGTATGAGGG,0.9679 ± 0.0066
13,CGTATGGTTG,1.06 ± 0.09
14,CGTATTAGAG,1.01 ± 0.048
15,CGTATTAGCG,0.952 ± 0.025
16,CGTATTATAA,1.01 ± 0.023
17,CGTATTCTAG,1 ± 0.023
18,CGTATTTTGG,0.986 ± 0.032
19,CGTCAATCT,1.53 ± 0.061
20,CGTCAGGCTT,0.987 ± 0.052
21,CGTCATATGG,1.07 ± 0.012
22,CGTCATCGGG,0.973 ± 0.029
23,CGTCATGCGT,0.964 ± 0.025
24,CGTCATTTAC,1.63 ± 0.074
25,CGTCATTTGG,0.9769 ± 0.0044

row,Sequence,switch fluorescence ratio
1,CGTCCAGTTC,1.08 ± 0.023
2,CGTCCCCGAG,1.054 ± 0.0087
3,CGTCCTAGGG,1.04 ± 0.043
4,CGTCGAGGCG,0.971 ± 0.035
5,CGTCGGAAAG,1.01 ± 0.024
6,CGTCGGAGTC,1.04 ± 0.031
7,CGTCGGGGG,0.982 ± 0.044
8,CGTCGGGGGA,1.01 ± 0.027
9,CGTCGGGGGC,1.005 ± 0.0096
10,CGTCGTGACA,1.03 ± 0.029
11,CGTCTAGTCG,1 ± 0.025
12,CGTCTATTTG,0.993 ± 0.023
13,CGTCTCGAAC,1 ± 0.014
14,CGTCTCTTAG,0.995 ± 0.027
15,CGTCTGATTG,1.01 ± 0.025
16,CGTCTGGCGA,1.02 ± 0.014
17,CGTCTTGGAA,1.01 ± 0.013
18,CGTGACCGCC,1.08 ± 0.028
19,CGTGACCGGA,0.972 ± 0.014
20,CGTGACCTGT,0.996 ± 0.022
21,CGTGAGGCAG,0.978 ± 0.056
22,CGTGAGGGGC,1.028 ± 0.01
23,CGTGATGATG,0.982 ± 0.06
24,CGTGCATTGA,1.03 ± 0.022
25,CGTGCTGGTG,1.03 ± 0.022

row,Sequence,switch fluorescence ratio
1,CGTGCTTAGT,1.02 ± 0.022
2,CGTGGAGAGC,1.06 ± 0.043
3,CGTGGGATAG,1.04 ± 0.036
4,CGTGGGATTG,1.012 ± 0.004
5,CGTGGGGCAG,1.01 ± 0.024
6,CGTGGGGGGT,1.01 ± 0.018
7,CGTGGGGTTG,1.01 ± 0.054
8,CGTGGGTCTT,1.04 ± 0.03
9,CGTGGTATCA,0.982 ± 0.077
10,CGTGGTCATC,0.9766 ± 0.0073
11,CGTGGTCGTC,0.991 ± 0.03
12,CGTGGTCGTG,0.9672 ± 0.00049
13,CGTGTAGTGG,0.984 ± 0.018
14,CGTGTATTCG,1.01 ± 0.031
15,CGTGTCCAGG,1.3 ± 0.024
16,CGTGTCCGTG,1.01 ± 0.011
17,CGTGTCGACA,0.9631 ± 0.0068
18,CGTGTCGCTG,0.971 ± 0.024
19,CGTGTGCATG,1.06 ± 0.13
20,CGTGTGGGAC,1.0136 ± 0.00016
21,CGTGTGGTTT,1.03 ± 0.037
22,CGTGTGTACA,0.98 ± 0.01
23,CGTGTGTGGC,1.02 ± 0.0032
24,CGTGTTGGCT,1.072 ± 0.0032
25,CGTGTTGGTC,1 ± 0.012
